In assay [1] the target is 53BP1 Tudor domain (53BP1 residues 1484–1603) (human) (UniProt Q12888).
For assay [2], the target named is C-terminal avi tagged 53BP1 Tudor domain, biotinylated (human) (UniProt Q12888). Kind of assay: AlphaScreen or HTRF; TR-FRET competition: 0.5 uM His-tagged i53, 0.5 uM C-terminal avi tagged 53BP1, 5 nM europium anti-His antibody, 0.5x streptavidin-XL665, i53 variant 5000-4.8 nM; 50 mM Tris pH 7.5, 150 mM NaCl, 0.02% Tween-20, 0.05% BSA; 2 h at room temperature; non-linear 4 parameter curve ….

By EC50 is commonly meant the midpoint of the concentration-response curve.

In the case of i53 variant L67R (designed binder), the potency in increasing HDR / decreasing NHEJ at HBB in HSPCs (dose response of purified protein in the electroporation mix, HBB-SNP AAV6), relative to parental i53 in assay [1] was found to be 3 fold. The EC50 in assay [2] was determined as 458 nM.

The substance “i53 variant T12Y.T14E.L67R (designed binder)” showed an EC50 in assay [2] of 179 nM.

Take i53 variant L67H (designed binder): in assay [2], the EC50 came to 465 nM.

Take i53 variant L67H.H68Y (designed binder): in assay [2], the EC50 came to 501 nM.

For i53 (WT) (designed binder), the EC50 in assay [2] was determined as 1080 nM.

For the substance “i53 variant T12V.T14H.L67H (designed binder)”, the potency in increasing HDR / decreasing NHEJ at HBB in HSPCs (dose response of purified protein in the electroporation mix, HBB-SNP AAV6), relative to parental i53 in assay [1] was determined as 3 fold. In assay [2], this substance returned an EC50 of 338 nM.

For the origin of these results see PMC10960832.
